In this assay the target is recombinant HIV-1BaL gp120 (HIV-1 BaL). The experiment in a line: SPR (Biacore 3000), gp120BaL immobilised on CM5 chip, peptide as analyte. Background: In SPR one partner is held on a chip, and binding of the other changes the refractive index at the surface.

In general, Kd refers to the equilibrium constant for the complex coming apart.

B1: 12p1 (RINNIPWSEAMM), 12-mer peptide (peptide)
peptide: H-RINNIPWSEAMM-NH2
notes: Quality control peptide of the SPR assay
As to B1, the dissociation constant (Kd) is 1020 nM.

These data come from EP2265632B1 (Elevation Biotech (Pty) Ltd., dated 2009).
